Patent publication US20230322930A1, “USE OF AN ANTI-PD-1 ANTIBODY AND A CYTOTOXIC ANTICANCER DRUG IN TREATMENT OF NON-SMALL CELL LUNG CANCER” (SHANGHAI JUNSHI BIOSCIENCES CO., LTD., priority 2020, published 2023)

Tested on: EGFR+NSCLC patients
Test: Phase II clinical trial, safety study (treatment-related adverse effects)
Conditions: with pemetrexed + carboplatin; n = 40

For “toripalimab: anti-PD-1 humanized IgG4 mAb with light and heavy chains of SEQ ID NOs: 9 and 10; described in WO 2014206107”, the “Elevated glutamyltransferase (TRAE), incidence of grade 3-5” value was 0%, the “Elevated glutamyltransferase (TRAE), total incidence” value was “(10.0) %” and the “Influenza and other diseases (TRAE), incidence of grade 3-5” value was 0%. The “Influenza and other diseases (TRAE), total incidence” value was “(10.0) %”, the “Leukopenia (TRAE), incidence of grade 3-5” value was “(22.5) %” and the “Urinary tract infection (TRAE), incidence of grade 3-5” value was 0%. The “Urinary tract infection (TRAE), total incidence” value was “(12.5) %”.
